B1: F1*; the commonest letter at each place (parent)
chain: GAGACCGCAACTGAAAAGTTGTTATCACTTGTCGTAAGACACTTTGGATGGGTTGAAGTTCTGCACGTAGAAGCAAAAGGC

Variants of: B1
Assay: fraction ligated after 30 min (ligated reads / total reads); higher = more ligase activity
Conditions: with F1*sub RNA substrate (template-directed ligation), 42 °C
Method: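 Chip-synthesised pool of F1* ligase ribozyme variants (all single and double substitutions, single, double and triple deletions in the catalytic core and GAA bulge, plus designed variants) was transcribed with T7 and reacted as a pool with excess substrate F1*sub for 30 min at 42 C in 50 mM EPPS pH 8.5, 25 mM MgCl2. Ligated and unligated bands were separated by PAGE, barcoded by RT and deep sequenced; fraction ligated = ligated reads / total reads per variant, relative activity = FL / FL of wild type (0.826). Sequences are the DNA template of the ribozyme.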

| Variant | fraction ligated |
| --- | --- |
| A24T T25A | 0.735 |
| A24T T25G | 0.722 |
| A24T T25C | 0.779 |
| A24T C40G | 0.582 |
| A24T C40T | 0.769 |
| A24T C40A | 0.34 |
| A24T A41C | 0.184 |
| A24T A41G | 0.72 |
| A24T A41T | 0.785 |
| A24T C26T | 0.124 |
| A24T C26A | 0.217 |
| A24T C26G | 0.201 |
| A24G T45A | 0.22 |
| A24G T45G | 0.0477 |
| A24G T45C | 0.0441 |
| T25A A56C | 0.0125 |
| T25A A56T | 0.0445 |
| T25A A56G | 0.0269 |
| A24T C28T | 0.794 |
| A24T C28A | 0.492 |
| A24T C28G | 0.373 |
| A24C A37T | 0.754 |
| A24C A37G | 0.626 |
| A24C A37C | 0.716 |

| Variant | fraction ligated |
| --- | --- |
| A24C A48G | 0.614 |
| A24C A48T | 0.0426 |
| A24C A48C | 0.186 |
| T23G T29C | 0.784 |
| T23G T29A | 0.824 |
| T23G T29G | 0.797 |
| A24T G47C | 0.0331 |
| A24T G47A | 0.797 |
| A24T G47T | 0.108 |
| A24C T29C | 0.28 |
| A24C T29G | 0.766 |
| A24C T29A | 0.747 |
| A24G T43G | 0.694 |
| A24G T43C | 0.694 |
| A24G T43A | 0.765 |
| A24C A57T | 0.55 |
| A24C A57C | 0.368 |
| A24C A57G | 0.633 |
| A24C T43G | 0.792 |
| A24C T43A | 0.625 |
| A24C T43C | 0.231 |
| T25A A57T | 0.252 |
| T25A A57C | 0.199 |
| T25A A57G | 0.345 |

| Variant | fraction ligated |
| --- | --- |
| T23G T25G | 0.738 |
| T23G T25C | 0.781 |
| T23G T25A | 0.78 |
| T23G G38C | 0.808 |
| T23G G38T | 0.81 |
| A24T T44A | 0.772 |
| A24T T44C | 0.778 |
| A24T T44G | 0.196 |
| A24C T45A | 0.152 |
| A24C T45C | 0.0358 |
| A24C T45G | 0.0118 |
| A24C T30G | 0.57 |
| A24C T30C | 0.168 |
| A24C T30A | 0.414 |
| A24G T44G | 0.791 |
| A24G T44A | 0.817 |
| A24G T44C | 0.763 |
| A24T C33G | 0.336 |
| A24T C33T | 0.742 |
| A24T C33A | 0.214 |
| T23G T44A | 0.842 |
| T23G T44G | 0.86 |
| T23G T44C | 0.802 |
| T25A A36C | 0.684 |

| Variant | fraction ligated |
| --- | --- |
| T25A A36G | 0.766 |
| T25A A36T | 0.752 |
| A24C | 0.747 |
| A24G | 0.777 |
| A24T | 0.778 |
| A24C T25C | 0.793 |
| A24C T25G | 0.787 |
| A24C T25A | 0.793 |
| A24T T32C | 0.243 |
| A24T T32A | 0.153 |
| A24T T32G | 0.372 |
| A24C A56T | 0.0488 |
| A24C A56C | 0.0226 |
| A24C A56G | 0.0302 |
| T23G T30A | 0.808 |
| T23G T30C | 0.765 |
| T23G T30G | 0.8 |
| A24T G46T | 0.2 |
| A24T G46A | 0.553 |
| A24T G46C | 0.313 |
| T25A A27G | 0.372 |
| T25A A27T | 0.371 |
| T25A A27C | 0.266 |
| A24T A39G | 0.793 |

| Variant | fraction ligated |
| --- | --- |
| A24T A39C | 0.636 |
| A24T A39T | 0.619 |
| A24G G34A | 0.763 |
| A24G G34C | 0.73 |
| A24G G34T | 0.729 |
| T25A C26A | 0.0968 |
| T25A C26T | 0.129 |
| T25A C26G | 0.0644 |
| A24T T49C | 0.694 |
| A24T T49G | 0.783 |
| A24T T49A | 0.8 |
| A24C C26G | 0.419 |
| A24C C26T | 0.0218 |
| A24C C26A | 0.417 |
| A24G G46A | 0.803 |
| A24G G46T | 0.621 |
| A24G G46C | 0.765 |
| A24G T32A | 0.591 |
| A24G T32C | 0.369 |
| A24G T32G | 0.589 |
| T23G G55T | 0.826 |
| T23G G55C | 0.809 |
| T23G G55A | 0.832 |
| A24C A39G | 0.774 |

| Variant | fraction ligated |
| --- | --- |
| A24C A39C | 0.131 |
| A24C A39T | 0.197 |
| A24C G38A | 0.508 |
| A24C G38T | 0.468 |
| A24C G38C | 0.274 |
| A24C A36T | 0.767 |
| A24C A36G | 0.0223 |
| A24C A36C | 0.763 |
| A24T G38T | 0.745 |
| A24T G38A | 0.205 |
| A24T G38C | 0.685 |
| A24C C33T | 0.697 |
| A24C C33A | 0.147 |
| A24C C33G | 0.4 |
| A24T A36C | 0.805 |
| A24T A36T | 0.794 |
| A24T A36G | 0.519 |
| A24C T35A | 0.782 |
| A24C T35C | 0.764 |
| A24C T35G | 0.759 |
| A24G T25C | 0.765 |
| A24G T25G | 0.368 |
| A24G T25A | 0.697 |
| A24C G50C | 0.532 |

| Variant | fraction ligated |
| --- | --- |
| A24C G50A | 0.431 |
| A24C G50T | 0.646 |
| A24G T35G | 0.774 |
| A24G T35A | 0.786 |
| A24G T35C | 0.776 |
| T25A A37C | 0.744 |
| T25A A37T | 0.776 |
| T25A A37G | 0.772 |
| A24C G47C | 0.00476 |
| A24C G47T | 0.0249 |
| A24C G47A | 0.806 |
| A24G T49G | 0.731 |
| A24G T49C | 0.731 |
| A24G T49A | 0.742 |
| T25A A41G | 0.419 |
| T25A A41C | 0.0344 |
| T25A A41T | 0.587 |
| T25A A48C | 0.752 |
| T25A A48T | 0.822 |
| T25A A48G | 0.459 |
| A24G A41T | 0.701 |
| A24G A41C | 0.034 |
| A24G A41G | 0.691 |

Reference: the supplement of paper PMC6755084
